Tested on: Escherichia coli TOP10
Assay: shrunken log2 fold change of peptide-encoding DNA abundance (4.5 h post-induction vs induction); higher = less antimicrobial activity (less host growth inhibition)
Settings: time post-induction: 4.5 h; library: site-saturation at positions 5, 18, 19, 20
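Further: peptides expressed intracellularly from a pBAD plasmid library in pooled LB shake-flask culture, induced with 0.3% L-arabinose, DNA abundance read by NGS, three biological replicates, DESeq2 with apeglm shrinkage.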

Sequence	shrunken log2 fold change
RRIRCRPPRLPRPRPRPCTSPRP	-0.647
RRIRVRPPRLPRPRPRPTWKPRP	-0.0442
RRIRNRPPRLPRPRPRPVAQPRP	0.089
RRIRRRPPRLPRPRPRPQYVPRP	-0.265
RRIRPRPPRLPRPRPRPMFEPRP	0.0626
RRIRVRPPRLPRPRPRPDLPPRP	-0.377
RRIRNRPPRLPRPRPRPLMIPRP	-0.0419
RRIRVRPPRLPRPRPRPHVAPRP	-0.0516
RRIRRRPPRLPRPRPRPLTVPRP	0.0344
RRIRLRPPRLPRPRPRPGTSPRP	-0.0167
RRIRGRPPRLPRPRPRPRTWPRP	0.317
RRIRPRPPRLPRPRPRPLYMPRP	-0.673
RRIRLRPPRLPRPRPRPHLPPRP	-0.353
RRIRYRPPRLPRPRPRPSEPPRP	-0.205
RRIRKRPPRLPRPRPRPRLWPRP	1.01
RRIRGRPPRLPRPRPRPCAPPRP	0.826
RRIRWRPPRLPRPRPRPPPQPRP	0.905
RRIRDRPPRLPRPRPRPAQIPRP	0.263
RRIRTRPPRLPRPRPRPGHEPRP	0.0552
RRIRMRPPRLPRPRPRPGCGPRP	1.04
RRIRWRPPRLPRPRPRPMAPPRP	0.0741
RRIRVRPPRLPRPRPRPNILPRP	-0.426
RRIRVRPPRLPRPRPRPNPCPRP	-0.461
RRIRHRPPRLPRPRPRPQNPPRP	-0.0256
RRIRYRPPRLPRPRPRPCMIPRP	-0.731

Sequence	shrunken log2 fold change
RRIRKRPPRLPRPRPRPVKNPRP	0.00783
RRIRPRPPRLPRPRPRPPGWPRP	0.484
RRIRNRPPRLPRPRPRPIPKPRP	-0.0467
RRIRVRPPRLPRPRPRPEACPRP	0.11
RRIRHRPPRLPRPRPRPSLNPRP	-0.51
RRIRPRPPRLPRPRPRPTTPPRP	0.322
RRIRWRPPRLPRPRPRPGKRPRP	0.37
RRIRDRPPRLPRPRPRPVFCPRP	0.0325
RRIRYRPPRLPRPRPRPRNVPRP	-0.324
RRIRWRPPRLPRPRPRPMHHPRP	-0.261
RRIRFRPPRLPRPRPRPRQDPRP	0.253
RRIRDRPPRLPRPRPRPRRQPRP	0.161
RRIRDRPPRLPRPRPRPNRHPRP	-0.327
RRIRRRPPRLPRPRPRPQNEPRP	0.0801
RRIRTRPPRLPRPRPRPTTPPRP	0.245
RRIRDRPPRLPRPRPRPIMYPRP	-0.0948
RRIRPRPPRLPRPRPRPLESPRP	-0.0234
RRIRKRPPRLPRPRPRPLAIPRP	0.0828
RRIRERPPRLPRPRPRPKLNPRP	-0.254
RRIRDRPPRLPRPRPRPFPLPRP	0.0517
RRIRNRPPRLPRPRPRPKDPPRP	0.0665
RRIRNRPPRLPRPRPRPHRFPRP	0.0175
RRIRTRPPRLPRPRPRPRINPRP	-0.506
RRIRNRPPRLPRPRPRPYDTPRP	-0.22
RRIRPRPPRLPRPRPRPHCIPRP	-0.325

Sequence	shrunken log2 fold change
RRIRERPPRLPRPRPRPWWGPRP	-0.081
RRIRRRPPRLPRPRPRPVEKPRP	-0.00451
RRIRWRPPRLPRPRPRPEQKPRP	0.0146
RRIRTRPPRLPRPRPRPYYLPRP	-1.28
RRIRLRPPRLPRPRPRPKIEPRP	0.0278
RRIRSRPPRLPRPRPRPVDYPRP	-0.268
RRIRGRPPRLPRPRPRPTDPPRP	0.687
RRIRERPPRLPRPRPRPMHWPRP	-0.0407
RRIRARPPRLPRPRPRPGCIPRP	0.315
RRIRHRPPRLPRPRPRPYEPPRP	-0.451
RRIRARPPRLPRPRPRPPHTPRP	0.739
RRIRYRPPRLPRPRPRPYRSPRP	0.0135
RRIRIRPPRLPRPRPRPGQRPRP	-0.0709
RRIRMRPPRLPRPRPRPMLLPRP	0.0485
RRIRWRPPRLPRPRPRPTHYPRP	0.0892
RRIRTRPPRLPRPRPRPGHCPRP	-0.0671
RRIRNRPPRLPRPRPRPHWIPRP	-0.322
RRIRDRPPRLPRPRPRPEWGPRP	0.0825
RRIRIRPPRLPRPRPRPTIDPRP	-0.356
RRIRDRPPRLPRPRPRPQFYPRP	-0.129
RRIRVRPPRLPRPRPRPRYQPRP	0.171
RRIRYRPPRLPRPRPRPTDSPRP	-0.678
RRIRSRPPRLPRPRPRPKWNPRP	-0.154
RRIRCRPPRLPRPRPRPNFWPRP	-0.136
RRIRHRPPRLPRPRPRPPYSPRP	-0.418

Sequence	shrunken log2 fold change
RRIRFRPPRLPRPRPRPVICPRP	0.0508
RRIRMRPPRLPRPRPRPHIKPRP	-0.501
RRIRDRPPRLPRPRPRPIQDPRP	-0.0113
RRIRYRPPRLPRPRPRPVGNPRP	-0.0681
RRIRFRPPRLPRPRPRPRPYPRP	-0.175
RRIRRRPPRLPRPRPRPFKMPRP	-0.124
RRIRQRPPRLPRPRPRPGYWPRP	-0.116
RRIRFRPPRLPRPRPRPKYTPRP	-0.657
RRIRQRPPRLPRPRPRPYRQPRP	0.00902
RRIRSRPPRLPRPRPRPVYAPRP	0.0491
RRIRKRPPRLPRPRPRPTMVPRP	0.27
RRIRQRPPRLPRPRPRPGFNPRP	-0.119
RRIRQRPPRLPRPRPRPFDEPRP	-0.153
RRIRWRPPRLPRPRPRPYRGPRP	-0.0785
RRIRGRPPRLPRPRPRPGRYPRP	-0.378
RRIRGRPPRLPRPRPRPANFPRP	0.0804
RRIRTRPPRLPRPRPRPKPCPRP	-0.126
RRIRARPPRLPRPRPRPYWMPRP	-0.275
RRIRIRPPRLPRPRPRPRTKPRP	0.161
RRIRDRPPRLPRPRPRPQWEPRP	0.033
RRIRRRPPRLPRPRPRPCQEPRP	0.139
RRIRYRPPRLPRPRPRPDQFPRP	-0.435
RRIRERPPRLPRPRPRPMSRPRP	-0.00149
RRIRQRPPRLPRPRPRPAAVPRP	-0.0726
RRIRDRPPRLPRPRPRPSTPPRP	-0.238

Sequence	shrunken log2 fold change
RRIRVRPPRLPRPRPRPRDGPRP	1.09
RRIRNRPPRLPRPRPRPWMAPRP	-0.28
RRIRRRPPRLPRPRPRPMCDPRP	0.308
RRIRARPPRLPRPRPRPALYPRP	0.332
RRIRKRPPRLPRPRPRPTPCPRP	0.692
RRIRERPPRLPRPRPRPWGIPRP	-0.234
RRIRNRPPRLPRPRPRPGRHPRP	0.00674
RRIRVRPPRLPRPRPRPKWDPRP	0.0182
RRIRQRPPRLPRPRPRPQMWPRP	0.0113
RRIRTRPPRLPRPRPRPWSAPRP	-0.152
RRIRKRPPRLPRPRPRPWRRPRP	0.0332
RRIRIRPPRLPRPRPRPPLAPRP	0.293
RRIRWRPPRLPRPRPRPLHSPRP	0.215
RRIRRRPPRLPRPRPRPHAGPRP	0.425
RRIRIRPPRLPRPRPRPGAGPRP	0.29
RRIRERPPRLPRPRPRPAPWPRP	0.203
RRIRHRPPRLPRPRPRPFCFPRP	-0.215
RRIRYRPPRLPRPRPRPGEMPRP	-0.0218
RRIRFRPPRLPRPRPRPDTQPRP	0.0363
RRIRRRPPRLPRPRPRPAQSPRP	0.247
RRIRWRPPRLPRPRPRPLVSPRP	1.59
RRIRARPPRLPRPRPRPVVRPRP	0.481
RRIRVRPPRLPRPRPRPQACPRP	1.56
RRIRHRPPRLPRPRPRPIQWPRP	-0.01
RRIRERPPRLPRPRPRPFLVPRP	-0.119

Sequence	shrunken log2 fold change
RRIRDRPPRLPRPRPRPKNWPRP	2.51
RRIRPRPPRLPRPRPRPDFNPRP	1.09
RRIRFRPPRLPRPRPRPEGLPRP	-0.0574
RRIRIRPPRLPRPRPRPRFDPRP	-0.282
RRIRKRPPRLPRPRPRPVYVPRP	-0.0394
RRIRARPPRLPRPRPRPKDYPRP	-0.248
RRIRHRPPRLPRPRPRPYQMPRP	-0.113
RRIRYRPPRLPRPRPRPPILPRP	-0.498
RRIRHRPPRLPRPRPRPECHPRP	-0.303
RRIRVRPPRLPRPRPRPNAGPRP	0.0323
RRIRARPPRLPRPRPRPAKVPRP	0.167
RRIRYRPPRLPRPRPRPLMSPRP	-0.0164
RRIRLRPPRLPRPRPRPLSRPRP	-0.247
RRIRERPPRLPRPRPRPYGRPRP	-0.264
RRIRVRPPRLPRPRPRPCYWPRP	-0.0621
RRIRTRPPRLPRPRPRPILAPRP	0.00499
RRIRLRPPRLPRPRPRPDTFPRP	0.0621
RRIRCRPPRLPRPRPRPWMDPRP	-0.169
RRIRLRPPRLPRPRPRPHMCPRP	-0.165
RRIRNRPPRLPRPRPRPGWLPRP	0.174
RRIRFRPPRLPRPRPRPQDKPRP	-0.308
RRIRERPPRLPRPRPRPAYMPRP	-0.505
RRIRMRPPRLPRPRPRPGVIPRP	3.26
RRIRYRPPRLPRPRPRPQLGPRP	-0.238
RRIRVRPPRLPRPRPRPETDPRP	0.023

Reference: the supplement of paper PMC9112550, “Optimization of the antimicrobial peptide Bac7 by deep mutational scanning” (BMC Biology, 2022)
